According to patent publication US7704951B2, “Method for ameliorating dyskinesia” (Juridical Foundation the Chemo-Sero-Therapeutic Research …, priority 2001, dated 2010):
“Also recorded” adds a separate entry of the source. Where no end group is shown, it is not given here. [ ]: non-standard residue; d: D form. Sec = N[C@@H](C[SeH])C(=O)O

What was measured:
[1] = tested on: Dami cells; experiment: Cytotoxicity-inhibitory (cell death-inhibitory) activity assay using Dami cells; assay type: cell-based; details: for cytotoxicity-inhibitory activity: Dami cells, fatty acid-containing assay medium, 4 to 5 days, survival of the cells
Procedure: Using Dami cells (described in Greenberg S. M. et al., Blood, vol. 72, p. 1968-1977 (1988)) for use in assay system for cytotoxicity-inhibitory activity, the cells were washed twice with assay medium (50% PBS/SA/0.03% HSA (manufactured by SIGMA) or SA/0.05% BSA free from fatty acid (WAKO)/4 μM long-chain polyvalent fatty acid (e.g. arachidonic acid, linoleic acid or linolenic acid)) and suspended in the same medium at 3×10^4 cells/ml. The cell suspension was added to a 96-well plate in each 200 μl for wells for sample addition or in each 100 μl for wells for serial dilution. To the wells for sample addition was added each 2 μl assay sample containing either selenoprotein P fragment prepared in Preparation 1, selenocystine, selenomethionine, Ebselen, or sodium selenite at the same concentration. After stirring, a serial dilution was made with the wells containing 100 μl cell suspension. The plate was incubated at 37° C. in CO2 incubator for 4 to 5 days followed by assessment of survival of the cells.

[2] = cited from earlier work
[3] = tested on: gerbil mice; experiment: Cerebral ischemia/reperfusion injury model (blocking both carotid arteries), degree of paralysis; assay type: in vivo; details: 1 mg/animal i.v., vs control
Procedure: Effect of selenoprotein P on dyskinesia induced by cerebral ischemia/reperfusion injury was assessed with a degree of paralysis using gerbil mice of 12 weeks old. […] […] A degree of paralysis was assessed after 6 and 24 hours.

[4] = tested on: hNT cells; experiment: Survival and protrusion formation in cultured human neurocytes; assay type: cell-based
Procedure: NT2 (Ntera2/D1) (Pleasure, S. J. and Lee, V. M., 1993, J. Neurosci. Res. 35: 585-602) is a progenitor neurocyte derived from human teratocarcinoma and can be differentiated with retinoic acid into hNT neurocytes having the properties of the nerve in the central nervous system (Trojanowski, J. Q. et al., 1993 Exp. Neurol. 122: 283-294). Effect of selenoprotein P on protrusion formation in the hNT cells was investigated.
Both NT2 and hNT cells can be cultured in CO2 incubator at 37° C. The hNT cells were prepared as follows: NT2 cells, being capable of passage culture in 10% FCS/D-MEM/F-12 medium, were first plated at 2.5×10^5 cells/ml. After 24 hours, the culture medium was replaced with D-MEM/F-12 containing 10 μM all-trans retinoic acid to initiate induction. The culture was subsequently continued for six weeks while replacing with the same medium every three days to differentiate NT2 cells into hNT cells. All the differentiated cells were recovered and expanded by 3-folds by passage culture with 10% FCS/D-MEM/F-12 medium. After 48 hours, the cells were plated at 3 to 4×10^6 cells/ml. After 48-hour culture, the culture medium was replaced with 5% FCS/D-MEM/F-12 plus mitotic inhibitor (10 μM Fluorodeoxyuridine, Uridine, 1 μM cytosine arabinoside) and culture was continued for ten days while replacing with the same medium every three days. Subsequently, the culture was treated with trypsin for a short time period and then lightly tapped to release the hNT cells which were recovered. The recovered cells were suspended in a mixed medium of an equal amount of NT2 culture supernatant (10% FCS/D-MEM/F-12 medium) and a fresh 10% FCS/D-MEM/F-12 medium. The suspension was plated on Laminin coating plate to maintain the cells. The hNT cells thus obtained were used in the following experiment.
The hNT cells were recovered by trypsin treatment, washed with a basal medium of RPMI 1640/D-MEM/F-12 (1:2:2), suspended in the same basal medium and cultured in 96-well plate at 3000 cells/well. On Day 5 to Day 7, the cells died completely.

[5] = tested on: EAE mice (SJL/JOrIICrj); experiment: Experimental allergic encephalomyelitis (EAE) in mice, degree of paralysis; assay type: in vivo, mouse; details: 0.5 mg/head daily i.p. Day 8 to Day 13
Procedure: For investigating the effect of selenoprotein P on dyskinesia induced by immunopathy based on a degree of paralysis, an experiment was performed wherein selenoprotein P was administered to EAE mice. Female SJL/JOrIICrj of 14 weeks old (Charles River Japan, Inc.) was used as a test animal. Myelin proteolipid protein (PLP) synthetic peptide 139-151 (amino acid sequence: His Ser Leu Gly Lys Trp Leu Gly His Pro Asp Lys Phe (SEQ ID NO: 6); […]) as an immunogen was intradermally administered to the mice together with Freund complete adjuvant H37Ra ([…]) and pertussis toxin (manufactured by List Biological Laboratory; 200 ng/mouse) at two portions at the neck of tail.
Thirteen mice each in two groups received daily 0.5 mg/head of selenoprotein P via intraperitoneal administration from the day (Day 8) previous to onset of the disease till Day 13. A control group received saline via intraperitoneal administration.

[6] = Toxicity of selenium compounds (cell culture); details: in spite of 9 to 10 selenocysteines
Source text: Selenium per se, as involved in the present invention, is one of essential trace elements and it is known that deficiency thereof induces a serious deficiency disease accompanied by, for instance, cardiomyopathy. […] Acute toxic symptoms of selenium include, for example, pale face, neurological symptoms, dermatitis, and gastrointestinal disorders.

## KRCINQLLCKLPTDSELAPRS (cysteine pairing not given here) [SEQ ID NO: 5, selenoprotein P-derived peptide with no selenocysteine, reference compound]
[1]
  cytotoxicity-inhibitory activity: exhibit no cytotoxicity-inhibitory activity

## N[C@@H](C[Se][Se]C[C@H](N)C(=O)O)C(=O)O [selenocystine]
[2]
  toxicity when added alone to cell culture: fairly strong toxicity

## Lys Arg Cys Ile Asn Gln Leu Leu Cys Lys Leu Pro Thr Asp Ser Glu Leu Ala Pro Arg Ser Xaa Cys Cys His Cys Arg His Leu Ile Phe Glu Lys (KRCINQLLCKLPTDSELAPRS[Sec]CCHCRHLIFEK; cysteine pairing not given here; listed as Homo sapiens) [SEQ ID NO: 4, peptide purified from selenoprotein P fragments under reduced condition; Xaa = selenocysteine]
[1]
  cytotoxicity-inhibitory activity: exhibit cytotoxicity-inhibitory activity

B1: selenoprotein P (protein, UniProt P49908 20-381, looked up)
Selenoprotein P: ESQDQSSLCKQPPAWSIRDQDPMLNSNGSVTVVALLQASUYLCILQASKLEDLRVKLKKEGYSNISYIVVNHQGISSRLKYTHLKNKVSEHIPVYQQEENQTDVWTLLNGSKDDFLIYDRCGRLVYHLGLPFSFLTFPYVEEAIKIAYCEKKCGNCSLTTLKDEDFCKRVSLATVDKTVETPSPHYHHEHHHNHGHQHLGSSELSENQQPGAPNAPTHPAPPGLHHHHKHKGQHRQGHPENRDMPASEDLQDLQKKLCRKRCINQLLCKLPTDSELAPRSUCCHCRHLIFEKTGSAITUQCKENLPSLCSUQGLRAEENITESCQURLPPAAUQISQQLIPTEASASURUKNQAKKUEUPSN
[3]; 30 minutes ischemia model, after 6 and 24 hours
  degree of paralysis (score, Table 1): apparently exhibited better conditions
[3]; 45 minutes ischemia model, after 6 hours
  degree of paralysis (score, Table 1): no significant difference
[3]; 45 minutes ischemia model, after 24 hours
  degree of paralysis (score, Table 1): much difference
[4]; 100 ng/ml, basal medium
  survival time of hNT cells: more than two weeks
[4]; 100 ng/ml, basal medium RPMI 1640/D-MEM/F-12, without addition cells died completely on Day 5 to Day 7
  cell death of hNT cells: completely inhibited
[4]; hNT cells, observed on Day 4, FIG. 3
  protrusion formation (cellular morphology): protrusion formation was observed; also recorded: protrusion was formed
[1]; full-length protein compared with fragment fraction from Preparation 1
  cell death-inhibitory activity per proteins: much lower than that of the fragment
[5]
  onset of the disease: onset of the disease was inhibited
  severity of the disease (paralysis score, Table 2): severity of the disease was lowered
[6]
  toxicity: no strong toxicity
